Article PMC10904058 (2024)

Molecular target: FASN of the SPR analysis (UniProt P49327 1-2511)
Assay: SPR

Kd: 17 nM
B1: TRIM56 of the SPR analysis (enzyme)
chain: MVSHGSSPSLLEALSSDFLACKICLEQLRAPKTLPCLHTYCQDCLAQLADGGRVRCPECRETVPVPPEGVASFKTNFFVNGLLDLVKARACGDLRAGKPACALCPLVGGTSTGGPATARCLDCADDLCQACADGHRCTRQTHTHRVVDLVGYRAGWYDEEARERQAAQCPQHPGEALRFLCQPCSQLLCRECRLDPHLDHPCLPLAEAVRARRPGLEGLLAGVDNNLVELEAARRVEKEALARLREQAARVGTQVEEAAEGVLRALLAQKQEVLGQLRAHVEAAEEAARERLAELEGREQVARAAAAFARRVLSLGREAEILSLEGAIAQRLRQLQGCPWAPGPAPCLLPQLELHPGLLDKNCHLLRLSFEEQQPQKDGGKDGAGTQGGEESQSRREDEPKTERQGGVQPQAGDGAQTPKEEKAQTTREEGAQTLEEDRAQTPHEDGGPQPHRGGRPNKKKKFKGRLKSISREPSPALGPNLDGSGLLPRPIFYCSFPTRMPGDKRSPRITGLCPFGPREILVADEQNRALKRFSLNGDYKGTVPVPEGCSPCSVAALQSAVAFSASARLYLINPNGEVQWRRALSLSQASHAVAALPSGDRVAVSVAGHVEVYNMEGSLATRFIPGGKASRGLRALVFLTTSPQGHFVGSDWQQNSVVICDGLGQVVGEYKGPGLHGCQPGSVSVDKKGYIFLTLREVNKVVILDPKGSLLGDFLTAYHGLEKPRVTTMVDGRYLVVSLSNGTIHIFRVRSPDS
